# Target: soluble recombinant uPAR (suPAR), expressed in Drosophila S2 cells (UniProt Q03405)
# Sequence (Q03405 23-299): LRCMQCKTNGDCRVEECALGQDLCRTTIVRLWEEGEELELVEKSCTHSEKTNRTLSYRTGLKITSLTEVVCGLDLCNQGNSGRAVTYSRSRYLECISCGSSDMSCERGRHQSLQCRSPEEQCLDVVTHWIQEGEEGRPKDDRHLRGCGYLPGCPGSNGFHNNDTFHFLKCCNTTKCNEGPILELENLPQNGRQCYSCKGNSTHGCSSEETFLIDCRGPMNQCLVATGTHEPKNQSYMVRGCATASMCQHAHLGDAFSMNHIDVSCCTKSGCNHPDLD
substance,measurement,value
"recombinant human single chain urokinase plasminogen activator (scuPA), wild-type, aa1-411 of the mature human sequence, expressed in Drosophila S2 cells",activity of scuPA in complex with suPAR,scuPA prepared in this manner was active in complex with suPAR as well as when activated by plasmin

# Reference: patent US20030219386
